Legend:
human TIGIT [1] = target: T1, human TIGIT (human, UniProt Q495A1 22-244); assay: cell-based or functional assay
T1 sequence: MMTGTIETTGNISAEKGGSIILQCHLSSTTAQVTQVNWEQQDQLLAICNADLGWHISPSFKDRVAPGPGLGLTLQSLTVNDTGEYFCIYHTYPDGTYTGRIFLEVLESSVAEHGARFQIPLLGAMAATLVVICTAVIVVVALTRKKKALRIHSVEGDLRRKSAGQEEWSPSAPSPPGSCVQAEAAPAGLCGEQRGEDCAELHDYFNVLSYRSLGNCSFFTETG

huTIGIT (PL44403) = target: T2, huTIGIT (PL44403) (human, UniProt Q495A1 22-141); assay: Octet, antibody on anti-huIgG Fc capture tips, huTIGIT as analyte
T2 construct: Soluble protein; also called Human TIGIT (Octet analyte, mono-Fc tag)
T2 sequence: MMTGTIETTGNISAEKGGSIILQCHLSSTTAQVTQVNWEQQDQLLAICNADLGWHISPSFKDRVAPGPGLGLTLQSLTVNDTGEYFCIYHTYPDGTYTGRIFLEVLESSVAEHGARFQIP
Method: (§1) In the case of cynoTIGIT, association was monitored for 5 min and dissociation for 5 min. […] The limit of detection of dissociation is 4e-5 based on a minimum of 5% dissociation over 20 minutes.

cynoTIGIT (PL40461) = target: T3, cynoTIGIT (PL40461) (cynomolgus monkey); assay: Octet, antibody on anti-huIgG Fc capture tips, cynoTIGIT as analyte
T3 construct: Soluble protein; also called Cyno TIGIT (Octet analyte)
Method: as §1

cynomolgus TIGIT = target: T4, cynomolgus TIGIT (cynomolgus monkey); assay: flow cytometry, 1 µg/mL on activated primary cyno PBMCs, fold over isotype control
T4 construct: Cell-surface form; also called cyno TIGIT
Method: (§2) The binding of hybridoma supernatants to TIGIT expressed by primary human and cynomolgus monkey cells were tested by flow cytometry. For human primary cell binding assay, purified human T cells (Biological Specialty Corp.) were thawed and suspended at a concentration of 2.5×10⁶ cells/mL. […] After 72 hours, cells were removed, washed and suspended at a concentration of 0.5×10⁶ cells/mL with 10 ng/mL of IL-2 (Pepro Tech). Cells were then incubated for another 48 to 72 hours at 37° C./5% CO₂. For cynomolgus primary cell binding assay, cynomolgus PBMCs (SNBL) were thawed and suspended in a concentration between 4×10⁶ and 5×10⁶ cells/mL. […] After 72 hours, cells were removed, washed and suspended at a concentration of 0.5×10E6 cells/mL with 20 ng/mL of IL-2 (Pepro Tech). Cells were then incubated for another 48 to 72 hours at 37° C./5% CO₂. After the final incubation, cells were prepared for flow cytometry by incubation with normalized hybridoma supernatants, positive control antibodies and isotype control antibodies at 1 μg/mL final concentration. […] Cells were then run on BD FACSCanto II flow cytometer to detect anti-TIGIT antibody binding.

human TIGIT [2] = target: T1, human TIGIT; assay: flow cytometry, 1 µg/mL on activated primary human T cells, fold over isotype control
Method: as §2

human TIGIT [3] = target: T1, human TIGIT; assay: flow cytometry on CHO-S cells expressing human TIGIT, competitor CD112-Fc-Alexa 647, at 1 ug/mL
Method: (§3) TIGIT-binding hybridoma supernatants were then tested for their ability to block TIGIT from binding ligand. […] The 7-AAD cell viability stain was then added and the cells incubated for a further 15 minutes at 4° C., washed twice and resuspended in FACS buffer. Samples were analyzed using a BD Accuri™ Flow Cytometer and an Intellicyt HyperCyt autoSampler.

human TIGIT [4] = target: T1, human TIGIT; assay: flow cytometry on CHO-S cells expressing human TIGIT, competitor huCD155-Fc-Alexa 647, at 1.7 µg/mL
Method: as §3

[5] = target: T5, biotinylated human CD112R-Fc (human, UniProt Q6DKI7 41-171, limits assumed, biotinylated); assay: flow cytometry on beads, supernatant at 5 µg/mL, competitor Alexa 647 CD112-huFc at 370 ng/mL
T5 construct: also called CD112R receptor (on streptavidin beads)
T5 sequence: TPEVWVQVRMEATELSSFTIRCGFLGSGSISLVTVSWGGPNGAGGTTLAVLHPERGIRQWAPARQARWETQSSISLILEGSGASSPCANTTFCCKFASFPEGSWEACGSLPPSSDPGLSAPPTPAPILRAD
Method: Biotinylated human CD112R-Fc was captured on Streptavidin polystyrene beads (Spherotech, Cat. No. SVP-60-5) in FACS buffer and incubated for 30 minutes at room temperature. Beads were washed twice with FACS buffer, centrifuged to pellet the beads, supernatant removed and resuspended in FACS buffer to remove unbound protein. Biotinylated human CD112R coated beads were added to a 96-well plate. Hybridoma supernatant samples were added such that 5 μg/mL final, beads were resuspended and incubated for 1 hour at room temperature. […] Beads were washed once with FACS buffer, centrifuged to pellet the beads, supernatant removed and resuspended in FACS buffer to remove unbound ligand. Samples were then resuspended in FACS buffer and read on BD Accuri™ Flow Cytometer with an Intellicyt HyperCyt autosampler.

human TIGIT [6] = target: T1, human TIGIT; assay: cell-based or functional assay; remark: listed apart in the source
cynomolgus monkey CD112R = target: T6, cynomolgus monkey CD112R (cynomolgus monkey); assay: flow cytometry, titration on activated cyno PBMCs
T6 construct: also called cyno CD112R
T6 chain: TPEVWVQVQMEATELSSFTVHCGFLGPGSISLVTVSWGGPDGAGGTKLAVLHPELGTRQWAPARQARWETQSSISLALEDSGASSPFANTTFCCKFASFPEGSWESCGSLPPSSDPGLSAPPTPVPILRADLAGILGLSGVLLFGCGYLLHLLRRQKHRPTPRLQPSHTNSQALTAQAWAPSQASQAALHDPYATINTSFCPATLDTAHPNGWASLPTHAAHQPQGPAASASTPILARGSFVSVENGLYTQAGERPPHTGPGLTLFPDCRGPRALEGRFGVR
Method: (§4) Briefly, cultured human T cells and cyno PBMCs were incubated with lead panel starting at 3 μg/mL for human or 5 μg/mL for cyno and titrated 1 in 3 for the lowest concentration of 0.001 μg/mL for human and 0.002 μg/mL for cyno. […] For analysis, FCS Express was used to obtain Geo Means and Screener was used to determine fold over Isotype control, titration curves and EC50 values.

human CD112R = target: T7, human CD112R (human, UniProt Q6DKI7 41-326); assay: flow cytometry, titration on activated primary human T cells
T7 construct: also called huCD112R; PVRIG
T7 sequence: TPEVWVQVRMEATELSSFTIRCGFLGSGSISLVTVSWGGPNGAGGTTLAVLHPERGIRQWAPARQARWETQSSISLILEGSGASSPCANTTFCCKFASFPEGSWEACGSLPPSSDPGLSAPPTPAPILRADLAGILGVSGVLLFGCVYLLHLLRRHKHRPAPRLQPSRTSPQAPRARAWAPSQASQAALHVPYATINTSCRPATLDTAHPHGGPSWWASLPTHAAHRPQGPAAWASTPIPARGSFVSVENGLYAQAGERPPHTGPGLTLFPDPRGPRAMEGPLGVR
Method: as §4

T4 sequence (chain, as listed by the source): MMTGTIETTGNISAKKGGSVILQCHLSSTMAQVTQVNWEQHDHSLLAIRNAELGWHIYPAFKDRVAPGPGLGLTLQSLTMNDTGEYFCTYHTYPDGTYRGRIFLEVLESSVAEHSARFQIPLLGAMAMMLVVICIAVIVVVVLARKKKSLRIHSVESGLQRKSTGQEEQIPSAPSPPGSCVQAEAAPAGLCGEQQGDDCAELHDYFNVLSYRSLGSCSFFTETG
T3 sequence (chain, as listed by the source limits assumed): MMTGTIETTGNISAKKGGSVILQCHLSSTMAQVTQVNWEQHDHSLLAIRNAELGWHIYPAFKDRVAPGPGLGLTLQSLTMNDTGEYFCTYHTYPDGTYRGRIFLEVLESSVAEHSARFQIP

Row | Binder | Potency [nM], Jurkat human TIGIT/IL-2-luciferase RGA, n = 1 (human TIGIT [1]) [nM] | Potency [nM], Jurkat human TIGIT/IL-2-luciferase RGA, n = 2 (human TIGIT [1]) [nM] | Kd (huTIGIT (PL44403)) [nM] | Kd (cynoTIGIT (PL40461)) [nM] | FACS Geomean Fold (cynomolgus TIGIT) [fold] | FACS Geomean Fold (human TIGIT [2]) [fold] | % inhibition (human TIGIT [3]) [%] | % inhibition (human TIGIT [4]) [%] | % of CD112 ligand prevented from binding [5] [%] | activity in the primary CD8 memory T-cell assay (IFN-γ release, CHO-K1-CD155+ cells) (human TIGIT [6]) [pM] | EC50 (cynomolgus monkey CD112R) [µg/mL] | EC50 (human CD112R) [µg/mL]
1 | 55G7 (antibody, V domains shown, Fully human XenoMouse antibody, tested as hybridoma supernatant or purified mAb) VH: QVQLVESGGGVVQPGRSLRLSCAASGFTFSSYGMHWVRQAPGKGLEWVALIWFDESNIYYADSVKGRFTISRDNSKNTLYLQMNSLRAEDTAVYFCARGYDLLTGYYNFDFWGLGTLVTVSA VL: QAGLTQPPSVSKGLRQTATLTCTGNTNNVGNRGAAWLQQHQGHPPKLLSYRNNNRPSGISERLSASRSGNTASLTITGLQPEDEADYYCSAWDSSLSAWVFGGGTKLTVLG | 4.4 | 14.4 | < 0.1 | 17 | 12.3 | 4.5 | 86 | 99 | – | – | – | –
2 | 11E4 (antibody, V domains shown, Fully human XenoMouse antibody, tested as hybridoma supernatant) VH: QVQLQESGPGLVKPSQTLSLTCTVSGGSISSGGYYWSWIRQHPGKGLEWIGYIYYSGSTSYNPSLKSRVTISVDTSKNQFSLKLSSVTAADTAVYYCARDLDYDILTGYPRWDYGMDVWGQGTTVTVSS VL: EIVMTQSPATLSVSPGERATLSCRASQSVSNNLAWYQQKPGQAPRLLIYSESTRATGIPDRFSGSGSGTEFTLTISSLQSEDFAVYYCQQHNNWPRTFGQGTKVEIKR | – | – | – | – | – | – | – | – | ≥ 90 | – | – | –
3 | 58A7 (antibody, V domains shown, Tested as hybridoma supernatant or purified mAb; also called 48B7) VH: QVQLQESGPGLVKPSQTLSLTCTVSGGSISSGGYYWNWIRQHPGKGLEWIGYIYYSGSTFYNPSLKSRVIISVDTSKNQFSLKLSSVTAADTAVYYCARAPRYNWNYGWFDPWGQGTLVTVSS VL: EIVLTQSPGTLSLSPGERATLSCRASQNVSSTYLAWYQQKPGQAPRLLFYGASSRATGIPDRFSRSGSGTDFTLTISRLEPEDFAVYYCQQYDVSPWTFGQGTKVEIK | 7.9 | 2.9 | < 0.1 | 38 | 7.2 | 4.5 | 88 | 99 | – | – | – | –
4 | 4G10 (antibody, V domains shown, Fully human XenoMouse antibody, tested as hybridoma supernatant or purified mAb) VH: QVQLQESGPGLVNPSQTLSLTCIVSGGSIRSGDYYWSWIRQHPGKGLEWIGYIYYSGGTYYNPSLKSRVIISVDTTKNQFSLKLSSMTAADTAVYYCARGSIAARSGYFYFSGLDVWGQGPTVTVSS VL: EIVLTQTPLSLSVTPGQPASISCKSSQSLLPSDGKTYLSWYLQKPGLPPQVLIYEVSNRFSGVPDRFSGSGSGTDFTLKISRVEAEDVGVYYCMQSIQLPLTFGGGTKVEIKR | 6.7 | 15 | < 0.2 | – | – | 13.5 | 91 | 100 | – | – | – | –
5 | 39D2 (antibody, V domains shown, Fully human XenoMouse antibody, tested as hybridoma supernatant or purified mAb) VH: QVQLVQSGAEVKKPGASVKVSCKASGYTFTGYYIHWVRQAPGQGLEWMGWISPTSGATGYAQNFQGRVTMTRDTSITTAYMELSRLRSDDTAVYYCARDSNSVLYYYGMDVWGQGTTVTVSS VL: DIEMTQAPSSLSASVGDRVTITCRASQTIRRYLNWYQQKPGKAPKLLIYAASSLQNGVPSRFSGSVSGTDFTLTISSLQPEDFATYYCQQSYSTPLTFGGGTKVGIRR | 2 | 2.8 | < 0.1 | – | – | 13.7 | 100 | 100 | – | 380 | – | –
6 | 27G12 (antibody, V domains shown, Fully human XenoMouse antibody, tested as hybridoma supernatant) VH: QVQLVQSGGEVKKPGASVKVSCKASGFTFTSYDINWVRQATGQGLEWMGWMNHYSGDSDYAQKLQGRVIITRNTSITTAYMELSSLRSEDTAVYYCGRERFPFGMDVWGQGTTVTVSS VL: DIQMTHSPSSLSASIGDRVTITCRASQGIRNELGWYQKKPGKAPKRLIYSASSLQSGVPSRFSGSGSGTEFTLTISSLQPEDFATYYCLQHNTYPLTFGGGTKVEIK | – | – | – | – | – | – | – | – | ≥ 90 | – | 0.174 | 0.089
7 | 1E1 (antibody, V domains shown, Fully human XenoMouse antibody, tested as hybridoma supernatant or purified mAb; also called 18C10) VH: QVQLVQSGAEVKKPGASVKVSCQASGYTFTDYYIYWVRQAPGQGLEWMGWINPNSGGTNYAQKFQGRVTMTRDTSISTAYIELSRLRSDDTAVYYCAREDNFNGMDVWGQGTTVTVSS VL: DIQMTQSPSSLSASVGDRVTITCRASQGIRNDLGWYQQKPGKAPKRLIYAASSLQSGVPSRFSGSGSGTEFTLTISSLQPEDFATYYCLQLNSYPLTFGGGTKVEIKR | – | – | – | – | – | – | – | – | ≥ 90 | – | 0.0087 | 0.02
8 | 24F1 (antibody, V domains shown, Fully human XenoMouse antibody, tested as hybridoma supernatant) VH: EVQLVESGGGLVQPGGSLRLSCAASGFTFSRDDMHWVRQATGKGLEWVAGIDNAGDTYYPGSVKGRFTISRENAKNSLYLQMNSLRAGDTAIYYCAREGQWPYGMDVWGQGTTVTVSS VL: DIQMTQSPSSLSASVGDRVTITCRASQGIRNDLGWYQQKPGKAPKRLIYSASSLQSGVSSRFSGSGSGTEFTLTISSLQPEDFATYYCLQSNSYPLTFGGGTKVEIKR | – | – | – | – | – | – | – | – | ≥ 90 | – | 0.0334 | 0.034
9 | 29E10 (antibody, V domains shown, Fully human XenoMouse antibody, tested as hybridoma supernatant) VH: EVQLVESGGGLVQPGGSLRLSCAASGFTFRNYDMHWVRQVPGKGLEWVSDIGNSGETYYLGSVKGRFTISRENAKNSLYLQMNSLRAGDTAVYYCVREEFGYGMDVWGQGTTVTVSS VL: DIQMTQSPSSLSASVGDRVTITCRASQGIRNDLGWYQQKPGKAPKRLIYAASSLQSGVPSRFSGSGSGTEFTLTISSLQPEDFATYYCLQHNSYPLTFGGGTKVEIKR | – | – | – | – | – | – | – | – | ≥ 90 | – | 0.0322 | 0.033
10 | 66H9 (antibody, V domains shown, Fully human XenoMouse antibody, tested as hybridoma supernatant or purified mAb) VH: QVQLQESGPGLVKPSQTLSLTCTVSGGSISSVYFYWNWIRQHPGKGLEWIGYIYYSGGTYYNPSLRSRVTISVDTSKNQFSLKLNSVTAADTAVYYCARGSIAAGGGYFYYNDMDVWGQGTTVTVSS VL: EIVLTQSPDFQSVTPKEKVAITCRASQSIGSSLHWYQQKPDQSPKPLIKYVSQSFSGVPSRFSGSGSGTDFTLTINSLEAEDAATYYCHQSSSLPLTFGGGTKVEIKR | 3.4 | 5.8 | < 0.1 | 18 | 4 | 4.1 | 85 | 98 | – | – | – | –
11 | 31B3 (antibody, V domains shown, Fully human XenoMouse antibody, tested as hybridoma supernatant) VH: QVQLVESGGGVVQPGRSLRLSCAASGFTFSYYGMHWVRQAPGKGLEWVALISYDGNNKYYVDSVRGRFTISRDNSKNTLSLQMNSLRAEDTAVYYCAREIFGESYYYGMDVWGQGTTVTVSS VL: EIVMTQSPATLSVSPGERATLSCRASQSISRNLAWYQQKPGQAPRLLIYGASIRATVIPARFSGSGSGTEFTLTISSLQSEDFAIYYCQQYNNWMCSFGQGTKLEIK | – | – | – | – | – | – | – | – | ≥ 90 | – | 0.898 | 0.127
